{
  "source": "patent US20200270321A1",
  "about": "(Hoffmann-La Roche, published 2020)",
  "binders": {"B1": {"name": "wild-type humanized anti-human CD19 antibody 8B8 (antibody, V domains shown)", "VH": "QVQLVQSGAEVKKPGASVKVSCKASGYTFTDYIMHWVRQAPGQGLEWMGYINPYNDGSKYTEKFNGRVTMTSDTSISTAYMELSRLRSDDTAVYYCARGTYYYGSALFDYWGQGTTVTVSS", "VL": "DIVMTQTPLSLSVTPGQPASISCKSSQSLENSNGNTYLNWYLQKPGQSPQLLIYRVSKRFSGVPDRFSGSGSGTDFTLKISRVEAEDVGVYYCLQLTHVPYTFGQGTKLEIK", "notes": "also called wt 8B8"}, "B2": {"name": "affinity-matured 8B8-derived clone 2B11, Fab in bacterial supernatant (Fab, V domains shown)", "VH": "B1 VH with N65Q, S105P, A106Q", "VL": "B1 VL with N31T, N33T, N35T, T97L, H98E, V99D", "notes": "tested as a soluble Fab from bacterial supernatant; also called 8B8-2B11; CD19 (8B8-2B11)"}, "B3": {"name": "humanized anti-human CD19 antibody clone 8B8-018 (antibody, V domains shown)", "VH": "B1 VH with N65Q", "VL": "B1 VL with S32P", "notes": "also called CD19 (8B8-018)"}, "B4": {"name": "bivalent binding FAP (28H1)-targeted huIgG1 P329G LALA (antibody, V domains shown)", "VH": "EVQLLESGGGLVQPGGSLRLSCAASGFTFSSHAMSWVRQAPGKGLEWVSAIWASGEQYYADSVKGRFTISRDNSKNTLYLQMNSLRAEDTAVYYCAKGWLGNFDYWGQGTLVTVSS", "VL": "EIVLTQSPGTLSLSPGERATLSCRASQSVSRSYLAWYQQKPGQAPRLLIIGASTRATGIPDRFSGSGSGTDFTLTISRLEPEDFAVYYCQQGQVIPPTFGQGTKVEIK", "notes": "the rest is said to be human IgG1 P329G LALA; also called FAP(28H1)-targeted hu IgG1 P329G LALA control molecule"}},
  "key": {"cyCD19 ECD": {"biological_target": "T1, cyCD19 ECD (cynomolgus)", "T1 construct": "extracellular domain; also called cynomolgus CD19 ectodomain", "assay": "binding to CD19 ECD; method not stated"}, "[1]": {"biological_target": "T2, monomeric human CD19 Fc (kih) fusion protein (human, UniProt P0DOX5 223-449 = IgG part)", "T2 construct": "also called monomeric CD19-Fc", "assay": "SPR (ProteOn XPR36), Fab from bacterial supernatant captured by anti-human Fab, monomeric CD19-Fc as analyte", "description": "In order to further characterize the ELISA-positive clones, the off-rate was measured by surface plasmon resonance and compared with the parental humanized clone 8B8.\nFor this experiment, 7000 RU of polyclonal anti-human Fab antibody were immobilized on all 6 channels of a GLM chip by Amine coupling (NaAcetate pH4.5, 25 μl/min, 240 s) (vertical orientation). Each antibody-containing bacterial supernatant was filtered and 2-fold diluted with PBS, and then injected for 360s at 25 μl/minute to achieve immobilization levels of between 100 and 400 response units (RU) in vertical orientation. […] Regeneration was performed by two pulses of 10 mM glycine pH 1.5 and 50 mM NaOH for 30 s at 90 ul/min (horizontal orientation). Dissociation rate constants (koff) were calculated using a simple one-to-one Langmuir binding model in ProteOn Manager v3.1 software by simultaneously fitting the sensorgrams."}, "huCD19 ECD": {"biological_target": "T3, huCD19 ECD (human, UniProt P15391 20-291)", "T3 construct": "also called human CD19 ectodomain", "T3 sequence": "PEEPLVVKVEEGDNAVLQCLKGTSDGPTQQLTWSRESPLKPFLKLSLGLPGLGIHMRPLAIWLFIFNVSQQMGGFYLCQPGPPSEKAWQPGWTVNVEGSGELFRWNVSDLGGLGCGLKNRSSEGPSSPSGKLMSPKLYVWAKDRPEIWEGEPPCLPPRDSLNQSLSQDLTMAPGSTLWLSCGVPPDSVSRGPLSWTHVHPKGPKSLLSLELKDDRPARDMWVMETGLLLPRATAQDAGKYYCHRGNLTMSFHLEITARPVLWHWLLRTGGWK", "assay": "binding to CD19 ECD; method not stated"}, "[2]": {"biological_target": "T4, human fibroblast activation protein (huFAP) on cells (human, UniProt Q12884 1-760)", "T4 construct": "Transfected in NIH/3T3-huFAP clone 39; also called NIH/3T3-huFAP clone 39; WM266-4", "assay": "flow cytometry on MV-3 cells; PE anti-human IgG Fc-gamma F(ab')2; MFI"}, "[3]": {"biological_target": "T4, human fibroblast activation protein …", "assay": "flow cytometry on WM-266-4 cells; PE anti-human IgG Fc-gamma F(ab')2; MFI"}, "[4]": {"biological_target": "T5, human 4-1BB (CD137) on cells (human, UniProt Q07011 24-255)", "T5 construct": "whole, on cells; also called 4-1BB+ human T cells", "T5 sequence (Q07011 24-255)": "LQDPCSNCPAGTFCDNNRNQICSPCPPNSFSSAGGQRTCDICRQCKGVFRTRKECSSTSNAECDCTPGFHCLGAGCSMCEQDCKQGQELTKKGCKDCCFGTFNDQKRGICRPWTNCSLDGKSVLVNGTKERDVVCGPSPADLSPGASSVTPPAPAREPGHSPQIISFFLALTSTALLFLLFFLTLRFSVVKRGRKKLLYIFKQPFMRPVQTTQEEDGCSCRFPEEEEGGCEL", "assay": "flow cytometry on activated human T cells, gate CD4+; PE anti-human IgG Fc-gamma F(ab')2; MFI baseline corrected"}},
  "note": "Substitutions are numbered along the chain they refer to. In names and notes the source's numbering stands.",
  "data": [
    {"binder": "B1", "values": [
      {"measurement": "EC50", "setting": "cyCD19 ECD", "result": 0.313, "unit": "µg/mL"}
    ]},
    {"binder": "B2", "values": [
      {"measurement": "koff", "setting": "[1]", "result": "4.37e-06", "unit": "s⁻¹"}
    ]},
    {"binder": "B3", "values": [
      {"measurement": "EC50", "setting": "huCD19 ECD", "result": 0.084, "unit": "µg/mL"},
      {"measurement": "EC50", "setting": "cyCD19 ECD", "result": 0.255, "unit": "µg/mL"}
    ]},
    {"binder": "B4", "values": [
      {"measurement": "EC50 (read off the curve)", "setting": "[2]", "result": "~1", "unit": "nM"},
      {"measurement": "EC50 (read off the curve)", "setting": "[3]", "result": "~1", "unit": "nM"},
      {"measurement": "binding result", "setting": "[4]", "result": "no binding (tested: about 300 nM)"}
    ]}
  ]
}
